Assay results published in paper PMC8368996 (2021).
Like-named read-outs stand apart in the source and are kept apart here. Ends that are not written are not given here. Oregon Green 488 maleimide = Oregon Green 488 maleimide fluorescent label attached to the N-terminal cysteine

B1: NEDD4L WW2 domain (domain or fragment)
chain: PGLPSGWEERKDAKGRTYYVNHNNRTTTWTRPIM
B2: NEDD4L WW4 domain (domain or fragment)
chain: GPLPPGWEERIHLDGRTFYIDHNSKITQWEDPRL
B3: NEDD4L WW3 domain (domain or fragment)
chain: KVTQSFLPPGWEMRIAPNGRPFFIDHNTKTTTWEDPRLKFPVHMRSK
B4: NEDD4L WW1 domain (domain or fragment)
chain: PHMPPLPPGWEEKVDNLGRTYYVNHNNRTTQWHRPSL

Key:
Assay in all cases: FP
[1] = target: B3
[2] = target: B2
[3] = target: B4
[4] = target: B1
[5] = target: PPxYc
Target sequence in this assay (Q96PU5 385-418): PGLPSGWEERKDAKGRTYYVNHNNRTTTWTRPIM

[6] = target: B3; remark: listed apart in the source
[7] = target: PPxYc; remark: listed apart in the source
[8] = target: PPxYc; remark: listed apart in the source
[9] = target: PPxYc; remark: listed apart in the source
Target sequence in this assay (Q96PU5 other isoform, or with tags, fused parts or gaps): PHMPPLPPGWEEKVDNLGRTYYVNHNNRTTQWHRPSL

## C(Oregon Green 488 maleimide)LMRYQHPPEYGAARP [AMOT PPxY3 peptide (residues 278-292), Oregon Green 488-labelled]
[1]
  Kd: 100 µM
[2]
  Kd: > 400 µM
[3]
  Kd: > 400 µM
[4]
  Kd: 280 µM

## C(Oregon Green 488 maleimide)MEHRGPPPEYPFKGM [AMOT PPxY2 peptide (residues 233-247), Oregon Green 488-labelled]
[1]
  Kd: 28 µM
[2]
  Kd: 210 µM
[3]
  Kd: 49 µM
[4]
  Kd: 30 µM

## B1
[5]
  Kd: > 800 µM

## C(Oregon Green 488 maleimide)MQNNEELPTYEEAKV [AMOT PPxY1 peptide (residues 100-114), Oregon Green 488-labelled]
[2]
  Kd: 60 µM
[3]
  Kd: 180 µM
[4]
  Kd: 34 µM
[6]
  Kd: 6.3 µM

## B2
[7]
  Kd: > 400 µM

## C(Oregon Green 488 maleimide)MEHRGPLPEYPFKGM [AMOT PPxY2 P239L mutant peptide]
[6]
  Kd: 78 µM

## B3
[8]
  Kd: > 250 µM

## C(Oregon Green 488 maleimide)MQNNEEPPTYEEAKV [AMOT PPxY1 L106P mutant peptide]
[6]
  Kd: 6.7 µM

## B4
[9]
  Kd: > 400 µM
